For orientation: EC50 (read off the curve) means the concentration giving half of the maximal effect. Low values mean an effect from little substance, high ones a need for much substance.

Values joined by “and” are separate entries in the source; they are usually repeats but may differ in a detail not shown here. Equal entries are not always repeated.

Consider twelve molecules from patent US20190322765A1 (Hoffmann-La Roche, published 2019).

B3: human IL-2R α-subunit, monomeric, with AcTev cleavage site and Avi His tag (receptor)
chain: ELCDDDPPEIPHATFKAMAYKEGTMLNCECKRGFRRIKSGSLYMLCTGNSSHSSWDNQCQCTSSATRNTTKQVTPQPEEQKERKTTEMQSPMQPVDQASLPGHCREPPPWENEATERIYHFVVGQMVYYQCVQGYRALHRGPAESVCKMTHGKTRWTQPQLICTGVDEQLYFQGGSGLNDIFEAQKIEWHEARAHHHHHH
notes: also called Hu IL-2R α; CD25

Test [1] addresses T1, human DPPIV on transfected HEK 293 cells (human, UniProt P27487 1-766).
T1 construct: whole, on cells; also called CD26
The test is described as follows: FACS on HEK 293-human DPPIV cells, with HEK mock-transfected cells, cells only and sec. antibody as controls; concentration not shown.

The target in test [2] is T2, human FAP expressed on stably transfected HEK293 cells (human, UniProt Q12884 1-760).
T2 construct: whole, on cells
Put plainly: FACS on HEK 293-human FAP cells, median fluorescence against concentration.
Description: Briefly, 250 000 cells per well were incubated with the indicated concentration of the immunoconjugates in a round-bottom 96-well plate, incubated for 30 min at 4° C., and washed once with PBS/0.1% BSA.

For test [3], the target named is FAP on GM05389 fibroblasts. Put plainly: FACS on GM05389 fibroblasts, surface-bound construct detected with secondary antibody after the times shown (internalization analysis); concentration not shown.
Test [4] deals with T3, Proleukin (Novartis/Chiron), commercially available wild-type IL-2 (UniProt P60568 22-153). Put plainly: SPR, receptor on CM5, IL-2 analyte, 25°C, steady state.
Description: (§1) Subsequently, affinity for the IL-2R βγ heterodimer and the IL-2R α-subunit were determined by surface plasmon resonance (SPR). Briefly, the ligand—either human IL-2R α-subunit (Fc2) or human IL2-R β knob γ hole heterodimer (Fc3)—was immobilized on a CM5 chip. […] Flow rate was 30 l/min and the following conditions were applied for association: 180s, dissociation: 300 s, and regeneration: 2×30 s 3M MgCl₂ for IL2-R β knob γ hole heterodimer, 10 s 50 mM NaOH for IL-2R α-subunit.
For test [5], the target named is T3, Proleukin (Novartis/Chiron), …. Put plainly: SPR, receptor on CM5, IL-2 analyte, 25°C, kinetic. For orientation: SPR reads the build-up and loss of mass on a sensor chip optically.
Description: as §1
For test [6], the target named is cynomolgus FAP-His (cynomolgus). The test is described as follows: SPR, FAP-His captured via anti-His, Fab analyte, 1:1 fit, 25°C.
Description: (§2) The FAP binding activity of the cleaved Fab fragments used in these examples as antigen binding, moieties was determined by surface plasmon resonance (SPR) on a Biacore machine. […] Temperature was 25° C. and HBS-EP was used as buffer. […] Fitting was performed based on a 1:1 binding model, RI=0, Rmax=local (because of capture format).
In test [7] the target is T4, human FAP-His (human, UniProt Q12884 27-760).
T4 construct: also called Hu FAP; His-tagged human FAP; not shown: His tag
Described as above.

The target of another test is T5, murine FAP-His (murine, UniProt P97321 27-761).
T5 construct: not shown: His tag
Described as above.

Test [8] addresses cynomolgus FAP-His (cynomolgus). The test is described as follows: SPR, FAP-His captured via anti-His, Fab analyte, steady state, 25°C.
The target in test [9] is T4, human FAP-His. The test is described as above.
In test [10] the target is T4, human FAP-His. The test is described as follows: SPR, His-tagged human FAP captured via anti-His, apparent bivalent affinity (avidity), 25°C.
Description: Temperature was 25° C. and HBS-EP was used as buffer. Analyte concentration was 50 nM down to 0.05 nM at a flow rate of 50 μl/min (association: 300 s, dissociation: 900 s, regeneration: 60 s, with 10 mM glycine pH 2). Fitting was performed based on a 1:1 binding model, RI=0, Rmax=local (because of capture format).
Test [11] deals with B3. Put plainly: SPR, receptor on CM5, kinetic.
In test [12] the target is T6, human IL-2R βγ heterodimer, subunit-Fc knobs-into-holes fusion (human).
T6 construct: The entries may hold a leader peptide; also called Hu IL-2R βγ; human IL2-R β knob γ hole heterodimer
The test is described as follows: SPR, receptor on CM5, IL-2 analyte, 25°C, kinetic.
Description: as §1

T3 sequence (P60568 other isoform, or with tags, fused parts or gaps limits assumed, form in doubt): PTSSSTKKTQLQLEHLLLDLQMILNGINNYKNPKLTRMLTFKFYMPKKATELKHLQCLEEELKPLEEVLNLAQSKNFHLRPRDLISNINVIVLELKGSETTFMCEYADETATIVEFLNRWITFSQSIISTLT
Description for murine FAP-His: as §2

B1: 4B9 Fab-IL-2 qm-Fab (other)
chain: EVQLLESGGGLVQPGGSLRLSCAASGFTFSSYAMSWVRQAPGKGLEWVSAIIGSGASTYYADSVKGRFTISRDNSKNTLYLQMNSLRAEDTAVYYCAKGWFGGFNYWGQGTLVTVSSASTKGPSVFPLAPSSKSTSGGTAALGCLVKDYFPEPVTVSWNSGALTSGVHTFPAVLQSSGLYSLSSVVTVPSSSLGTQTYICNVNHKPSNTKVDKKVEPKSCDSGGGGSGGGGSGGGGAPASSSTKKTQLQLEHLLLDLQMILNGINNYKNPKLTRMLTAKFAMPKKATELKHLQCLEEELKPLEEVLNGAQSKNFHLRPRDLISNINVIVLELKGSETTFMCEYADETATIVEFLNRWITFAQSIISTLTSGGGGSGGGGSGGGGEVQLLESGGGLVQPGGSLRLSCAASGFTFSSYAMSWVRQAPGKGLEWVSAIIGSGASTYYADSVKGRFTISRDNSKNTLYLQMNSLRAEDTAVYYCAKGWFGGFNYWGQGTLVTVSSASTKGPSVFPLAPSSKSTSGGTAALGCLVKDYFPEPVTVSWNSGALTSGVHTFPAVLQSSGLYSLSSVVTVPSSSLGTQTYICNVNHKPSNTKVDKKVEPKSCD
light: EIVLTQSPGTLSLSPGERATLSCRASQSVTSSYLAWYQQKPGQAPRLLINVGSRRATGIPDRFSGSGSGTDFTLTISRLEPEDFAVYYCQQGIMLPPTFGQGTKVEIKRTVAAPSVFIFPPSDEQLKSGTASVVCLLNNFYPREAKVQWKVDNALQSGNSQESVTEQDSKDSTYSLSSTLTLSKADYEKHKVYACEVTHQGLSSPVTKSFNRGEC
notes: Fab-IL-2-Fab immunoconjugate against FAP with quadruple mutant IL-2
Consider B1, for which the binding result is “no binding” in [1], “binds” in [2] and “binds” in test [3].

B2: 14B3 Fab-IL-2 qm-Fab (other)
chain: EVQLLESGGGLVQPGGSLRLSCAASGFTFSSYAMSWVRQAPGKGLEWVSAILASGAITYYADSVKGRFTISRDNSKNTLYLQMNSLRAEDTAVYYCAKGWFGGFNYWGQGTLVTVSSASTKGPSVFPLAPSSKSTSGGTAALGCLVKDYFPEPVTVSWNSGALTSGVHTFPAVLQSSGLYSLSSVVTVPSSSLGTQTYICNVNHKPSNTKVDKKVEPKSCDSGGGGSGGGGSGGGGAPASSSTKKTQLQLEHLLLDLQMILNGINNYKNPKLTRMLTAKFAMPKKATELKHLQCLEEELKPLEEVLNGAQSKNFHLRPRDLISNINVIVLELKGSETTFMCEYADETATIVEFLNRWITFAQSIISTLTSGGGGSGGGGSGGGGEVQLLESGGGLVQPGGSLRLSCAASGFTFSSYAMSWVRQAPGKGLEWVSAILASGAITYYADSVKGRFTISRDNSKNTLYLQMNSLRAEDTAVYYCAKGWFGGFNYWGQGTLVTVSSASTKGPSVFPLAPSSKSTSGGTAALGCLVKDYFPEPVTVSWNSGALTSGVHTFPAVLQSSGLYSLSSVVTVPSSSLGTQTYICNVNHKPSNTKVDKKVEPKSCD
light: EIVLTQSPGTLSLSPGERATLSCRASQSVTSSYLAWYQQKPGQAPRLLINVGSRRATGIPDRFSGSGSGTDFTLTISRLEPEDFAVYYCQQGIMLPPTFGQGTKVEIKRTVAAPSVFIFPPSDEQLKSGTASVVCLLNNFYPREAKVQWKVDNALQSGNSQESVTEQDSKDSTYSLSSTLTLSKADYEKHKVYACEVTHQGLSSPVTKSFNRGEC
notes: as for B1
Turning to B2, the binding result in [1] is reported as “no binding”; in test [3], “binds”. Also, in test [2], the “EC50 (read off the curve)” value was ~20 nM.
B3: the Kd in test [4] is 19 nM and 17.8 nM; in [5] it was 7.5 nM and 12.5 nM.

B4: 3F2 Fab (Fab, V domains shown)
VH: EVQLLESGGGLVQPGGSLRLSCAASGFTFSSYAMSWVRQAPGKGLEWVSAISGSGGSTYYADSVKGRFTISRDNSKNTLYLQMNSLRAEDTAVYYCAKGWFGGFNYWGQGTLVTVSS
VL: EIVLTQSPGTLSLSPGERATLSCRASQSVTSSYLAWYQQKPGQAPRLLINVGSRRATGIPDRFSGSGSGTDFTLTISRLEPEDFAVYYCQQGIMLPPTFGQGTKVEIKR
Regarding B4, the Kd with cynomolgus FAP-His [6] was 4.7 nM and 5.3 nM; in the test with human FAP-His [7], 6 nM; with murine FAP-His it was 8.9 nM and 9.5 nM.

B5: 28H1 Fab (Fab, V domains shown)
VH: EVQLLESGGGLVQPGGSLRLSCAASGFTFSSHAMSWVRQAPGKGLEWVSAIWASGEQYYADSVKGRFTISRDNSKNTLYLQMNSLRAEDTAVYYCAKGWLGNFDYWGQGTLVTVSS
VL: EIVLTQSPGTLSLSPGERATLSCRASQSVSRSYLAWYQQKPGQAPRLLIIGASTRATGIPDRFSGSGSGTDFTLTISRLEPEDFAVYYCQQGQVIPPTFGQGTKVEIKR
notes: Cleaved Fab fragment
For B5, the Kd with human FAP-His [7] is 2.6 nM; with murine FAP-His it was 0.13 nM and 0.18 nM.

B6: 4G8 Fab (Fab, V domains shown)
VH: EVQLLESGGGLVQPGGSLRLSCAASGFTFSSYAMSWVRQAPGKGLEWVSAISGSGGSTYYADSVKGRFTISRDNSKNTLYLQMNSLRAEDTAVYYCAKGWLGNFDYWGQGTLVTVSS
VL: EIVLTQSPGTLSLSPGERATLSCRASQSVSRSYLAWYQQKPGQAPRLLIIGASTRATGIPDRFSGSGSGTDFTLTISRLEPEDFAVYYCQQGQVIPPTFGQGTKVEIKR
Turning to B6, the Kd in the test with cynomolgus FAP-His [8] was 33 nM and 34 nM; with human FAP-His [9], 48 nM; with cynomolgus FAP-His [6], 33 nM and 35 nM; with human FAP-His [7] it was 53 nM and 51 nM; in the test with murine FAP-His it was 0.07 nM.

B7: 4B9 Fab (Fab, V domains shown)
VH: EVQLLESGGGLVQPGGSLRLSCAASGFTFSSYAMSWVRQAPGKGLEWVSAIIGSGASTYYADSVKGRFTISRDNSKNTLYLQMNSLRAEDTAVYYCAKGWFGGFNYWGQGTLVTVSS
VL: EIVLTQSPGTLSLSPGERATLSCRASQSVTSSYLAWYQQKPGQAPRLLINVGSRRATGIPDRFSGSGSGTDFTLTISRLEPEDFAVYYCQQGIMLPPTFGQGTKVEIK
Take B7: the Kd in the test with cynomolgus FAP-His [6] was 0.23 nM and 0.24 nM; in the test with human FAP-His [7], 0.3 nM and 0.31 nM; in the test with murine FAP-His, 5 nM and 5.2 nM.

B8: 14B3 Fab (Fab, V domains shown)
VH: EVQLLESGGGLVQPGGSLRLSCAASGFTFSSYAMSWVRQAPGKGLEWVSAILASGAITYYADSVKGRFTISRDNSKNTLYLQMNSLRAEDTAVYYCAKGWFGGFNYWGQGTLVTVSS
VL: EIVLTQSPGTLSLSPGERATLSCRASQSVTSSYLAWYQQKPGQAPRLLINVGSRRATGIPDRFSGSGSGTDFTLTISRLEPEDFAVYYCQQGIMLPPTFGQGTKVEIKR
notes: Cleaved Fab fragment
Turning to B8, the Kd was 0.59 nM and 0.61 nM in the test with cynomolgus FAP-His [6]; 0.47 nM with human FAP-His [7]; 4.7 nM in the test with murine FAP-His.

B9: 4G8 IgG (antibody, V domains shown)
VH: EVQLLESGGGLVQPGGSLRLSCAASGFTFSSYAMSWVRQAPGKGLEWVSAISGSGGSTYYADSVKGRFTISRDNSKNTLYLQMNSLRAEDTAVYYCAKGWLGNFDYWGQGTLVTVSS
VL: EIVLTQSPGTLSLSPGERATLSCRASQSVSRSYLAWYQQKPGQAPRLLIIGASTRATGIPDRFSGSGSGTDFTLTISRLEPEDFAVYYCQQGQVIPPTFGQGTKVEIK
On to B9, for which the Kd in the test with human FAP-His [10] was 0.05 nM.

B10: 28H1 IgG (antibody, V domains shown)
VH: EVQLLESGGGLVQPGGSLRLSCAASGFTFSSHAMSWVRQAPGKGLEWVSAIWASGEQYYADSVKGRFTISRDNSKNTLYLQMNSLRAEDTAVYYCAKGWLGNFDYWGQGTLVTVSS
VL: EIVLTQSPGTLSLSPGERATLSCRASQSVSRSYLAWYQQKPGQAPRLLIIGASTRATGIPDRFSGSGSGTDFTLTISRLEPEDFAVYYCQQGQVIPPTFGQGTKVEIK
notes: also called unmodified 28H1 IgG antibody
B10: the Kd in the test with human FAP-His [10] was 0.2 nM.

B11: 29B11 Fab (Fab, V domains shown)
VH: EVQLLESGGGLVQPGGSLRLSCAASGFTFSSYAMSWVRQAPGKGLEWVSAIIGSGGITYYADSVKGRFTISRDNSKNTLYLQMNSLRAEDTAVYYCAKGWFGGFNYWGQGTLVTVSS
VL: EIVLTQSPGTLSLSPGERATLSCRASQSVTSSYLAWYQQKPGQAPRLLINVGSRRATGIPDRFSGSGSGTDFTLTISRLEPEDFAVYYCQQGIMLPPTFGQGTKVEIKR
notes: Cleaved Fab fragment
B11: the Kd with cynomolgus FAP-His [6] is 0.21 nM and 0.2 nM; with human FAP-His [7], 0.19 nM; with murine FAP-His it was 1.3 nM and 1.2 nM.

B12: Naked IL-2 qm (quadruple mutant T3A/F42A/Y45A/L72G, His-tagged) (ligand)
chain: APASSSTKKTQLQLEHLLLDLQMILNGINNYKNPKLTRMLTAKFAMPKKATELKHLQCLEEELKPLEEVLNGAQSKNFHLRPRDLISNINVIVLELKGSETTFMCEYADETATIVEFLNRWITFAQSIISTLTVDHHHHHH
notes: also called naked IL-2 quadruple mutant; quadruple mutant IL-2
Turning to B12, the binding result in test [11] is recorded as “no binding (tested: 300 nM)”. Besides, the Kd in test [12] is 2.7 nM and 2 nM.
